Key:
cab39_human CAB39 [1] = molecular target: cab39_human CAB39 (UniProt Q9Y376)
cab39_human CAB39 [2] = molecular target: cab39_human CAB39 (UniProt Q9Y376); remark: listed apart in the source
cab39_human CAB39 [3] = molecular target: cab39_human CAB39 (UniProt Q9Y376); remark: listed apart in the source
cab39_human CAB39 [4] = molecular target: cab39_human CAB39 (UniProt Q9Y376); remark: listed apart in the source

Sequence of cab39_human CAB39 (Q9Y376 whole entry): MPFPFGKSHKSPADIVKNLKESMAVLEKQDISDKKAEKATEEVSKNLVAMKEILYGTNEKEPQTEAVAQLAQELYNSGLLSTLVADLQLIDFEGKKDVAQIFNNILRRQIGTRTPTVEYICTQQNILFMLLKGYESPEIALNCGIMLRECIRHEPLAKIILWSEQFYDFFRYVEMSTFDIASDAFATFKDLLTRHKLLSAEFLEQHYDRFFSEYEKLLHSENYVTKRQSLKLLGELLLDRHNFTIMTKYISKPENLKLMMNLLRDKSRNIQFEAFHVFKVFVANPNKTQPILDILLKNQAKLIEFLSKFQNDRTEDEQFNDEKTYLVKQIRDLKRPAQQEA
Sequence of Serine/threonine-protein kinase 26 (Homo sapiens), Q9P289-1 Y134A (Q9P289 whole entry Y134A): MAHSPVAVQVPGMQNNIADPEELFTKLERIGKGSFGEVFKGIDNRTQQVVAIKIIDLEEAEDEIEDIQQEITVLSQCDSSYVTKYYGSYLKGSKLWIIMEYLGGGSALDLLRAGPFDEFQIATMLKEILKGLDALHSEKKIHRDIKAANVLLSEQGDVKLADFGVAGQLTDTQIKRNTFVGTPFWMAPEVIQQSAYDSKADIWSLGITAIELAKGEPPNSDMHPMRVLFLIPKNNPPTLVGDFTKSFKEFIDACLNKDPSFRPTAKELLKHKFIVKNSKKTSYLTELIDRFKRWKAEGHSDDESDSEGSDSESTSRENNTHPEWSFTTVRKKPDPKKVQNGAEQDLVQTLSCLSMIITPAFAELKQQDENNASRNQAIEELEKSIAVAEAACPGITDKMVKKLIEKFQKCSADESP
Sequence of Serine/threonine-protein kinase 26 (Homo sapiens), Q9P289-1 L90E;L95E (Q9P289 whole entry L90E/L95E): as the sequence (Q9P289 whole entry Y134A) above, with L90E, L95E, A134Y counted along it
Sequence of Serine/threonine-protein kinase 26 (Homo sapiens), Q9P289-1 L95E (Q9P289 whole entry L95E): as the sequence (Q9P289 whole entry Y134A) above, with L95E, A134Y counted along it
Sequence of Serine/threonine-protein kinase 26 (Homo sapiens), Q9P289-1 W324E (Q9P289 whole entry W324E): as the sequence (Q9P289 whole entry Y134A) above, with A134Y, W324E counted along it
Sequence of Serine/threonine-protein kinase 26 (Homo sapiens), Q9P289-1 F229A (Q9P289 whole entry F229A): as the sequence (Q9P289 whole entry Y134A) above, with A134Y, F229A counted along it
Sequence of Serine/threonine-protein kinase 26 (Homo sapiens), Q9P289-1 L228E (Q9P289 whole entry L228E): as the sequence (Q9P289 whole entry Y134A) above, with A134Y, L228E counted along it
Sequence of Serine/threonine-protein kinase 26 (Homo sapiens), Q9P289-1 E58A (Q9P289 whole entry E58A): as the sequence (Q9P289 whole entry Y134A) above, with E58A, A134Y counted along it
Sequence of Serine/threonine-protein kinase 26 (Homo sapiens), Q9P289-1 D162A (Q9P289 whole entry D162A): as the sequence (Q9P289 whole entry Y134A) above, with A134Y, D162A counted along it
Sequence of Serine/threonine-protein kinase 26 (Homo sapiens), Q9P289-1 M225E (Q9P289 whole entry M225E): as the sequence (Q9P289 whole entry Y134A) above, with A134Y, M225E counted along it
Sequence of Serine/threonine-protein kinase 26 (Homo sapiens), Q9P289-1 E138A (Q9P289 whole entry E138A): as the sequence (Q9P289 whole entry Y134A) above, with A134Y, E138A counted along it
Sequence of Serine/threonine-protein kinase 26 (Homo sapiens), Q9P289-1 D242A;K276A (Q9P289 whole entry D242A/K276A): as the sequence (Q9P289 whole entry Y134A) above, with A134Y, D242A, K276A counted along it

| Substance | effect of a mutation on the interaction (cab39_human CAB39 [1]) | effect of a mutation on the interaction (cab39_human CAB39 [2]) | effect of a mutation on the interaction (cab39_human CAB39 [3]) | also measured |
| --- | --- | --- | --- | --- |
| Serine/threonine-protein kinase 26 (Homo sapiens), Q9P289-1 E138A | decreasing interaction strength | – | – | – |
| Serine/threonine-protein kinase 26 (Homo sapiens), Q9P289-1 Y134A | disrupting interaction strength | decreasing interaction strength | – | – |
| Serine/threonine-protein kinase 26 (Homo sapiens), Q9P289-1 D242A;K276A | – | – | decreasing interaction strength | – |
| Serine/threonine-protein kinase 26 (Homo sapiens), Q9P289-1 E58A | – | decreasing interaction strength | – | – |
| Serine/threonine-protein kinase 26 (Homo sapiens), Q9P289-1 M225E | – | – | decreasing interaction strength | – |
| Serine/threonine-protein kinase 26 (Homo sapiens), Q9P289-1 F229A | – | – | decreasing interaction strength | – |
| Serine/threonine-protein kinase 26 (Homo sapiens), Q9P289-1 L228E | – | – | decreasing interaction strength | – |
| Serine/threonine-protein kinase 26 (Homo sapiens), Q9P289-1 W324E | disrupting interaction strength | decreasing interaction strength | – | – |
| Serine/threonine-protein kinase 26 (Homo sapiens), Q9P289-1 L90E;L95E | disrupting interaction strength | decreasing interaction strength | – | – |
| Serine/threonine-protein kinase 26 (Homo sapiens), Q9P289-1 L95E | disrupting interaction strength | decreasing interaction strength | – | – |
| Serine/threonine-protein kinase 26 (Homo sapiens), Q9P289-1 D162A | – | – | – | effect of a mutation on the interaction (cab39_human CAB39 [4]): decreasing interaction strength |

From IntAct's records for PubMed 23434407
